Patent US9388450B2, “FRET based multiplex probes” (University of North Texas Health Science Center at Fort …, priority 2013, dated 2016)
Ends that are not written are not given here.

How the values were obtained:
Format in all cases: biochemical
MMP-9 = MMP-9 (Homo sapiens, UniProt P14780); assay: FRET-based detection of peptide cleavage by MMP-9
Text: Matrix metalloproteinases (MMPs) are involved in major human diseases such as cancer, AIDS, and inflammation. Therefore, sensitive detection and imaging of MMPs activities offer great clinical value to cancer detection, treatment, and therapy monitoring. Among many successful approaches that utilize peptide chemistry Förster resonance energy transfer (FRET) offers high potential for development of in-vitro and in-vivo proteases assays. Recently we developed and tested a specific peptide sequence that is a substrate for MMP-9 (Lys-Gly-Pro-Arg-Ser-Leu-Ser-Gly-Lys) (SEQ ID NO.: 3) (FIG. 4), which is cleaved into Lys-Gly-Pro-Arg-Ser (SEQ ID NO.: 4) and Leu-Ser-Gly-Lys (SEQ ID NO.: 5). Other non-limiting sequence targets can include, e.g., peptide substrates for a consensus for MMP-2 (Lys-Gly-Ser-Gly-Pro-Tyr-Val-Ile-Trp-Leu-Gly-Lys) (SEQ ID NO.: 6) (SEQ ID NO.: 7). In this approach, one end of the specific peptide was labeled with a donor and the other with an acceptor chromophore. A selective cleavage of this specific peptide sequence by MMP-9 protease results in the separation of the two segments of oligopeptide carrying the donor and acceptor and consequently leads to significant increase of donor signal and decrease in acceptor signal. A ratiometric approach allows excellent dynamic range for detection that produces an almost 60 fold change when going from intact to completely cleaved peptide.
They have also shown that the peptide is very specific and is not digested by MMP-2 enzyme MMP-3 or MMP-7 enzymes. FRET sensitized fluorescence detection proves to be very effective detection approach. Similar specific peptide sequences have been developed for MMP-2, MMP-7 and more. To make highly confident assessment of various proteases activities directly in cells and tissue it is necessary to have single molecular probe capable for simultaneous analysis/detection of more than one protease. […]

MMP-2 = target: T1, MMP-2 (Homo sapiens, UniProt P08253); assay: specificity of peptide: digestion by MMP-2; settings: peptide as substrate
T1 sequence (P08253 110-660): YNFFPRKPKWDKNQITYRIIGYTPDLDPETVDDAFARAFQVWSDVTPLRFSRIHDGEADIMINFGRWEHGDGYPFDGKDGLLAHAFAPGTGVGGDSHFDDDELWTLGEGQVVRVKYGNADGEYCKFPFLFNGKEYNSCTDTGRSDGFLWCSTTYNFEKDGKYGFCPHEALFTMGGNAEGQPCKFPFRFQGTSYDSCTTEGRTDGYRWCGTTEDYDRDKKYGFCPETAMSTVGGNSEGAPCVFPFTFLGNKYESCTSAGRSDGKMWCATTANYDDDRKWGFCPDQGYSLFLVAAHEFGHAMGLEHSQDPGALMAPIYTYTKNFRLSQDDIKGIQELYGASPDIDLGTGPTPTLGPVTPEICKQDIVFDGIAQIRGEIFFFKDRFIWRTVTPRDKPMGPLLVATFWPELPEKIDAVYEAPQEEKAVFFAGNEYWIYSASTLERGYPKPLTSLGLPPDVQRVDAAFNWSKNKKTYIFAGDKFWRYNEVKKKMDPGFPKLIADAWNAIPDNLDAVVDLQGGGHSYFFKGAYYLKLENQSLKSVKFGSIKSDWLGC
Text: (§1) They have also shown that the peptide is very specific and is not digested by MMP-2 enzyme MMP-3 or MMP-7 enzymes. FRET sensitized fluorescence detection proves to be very effective detection approach. Similar specific peptide sequences have been developed for MMP-2, MMP-7 and more. To make highly confident assessment of various proteases activities directly in cells and tissue it is necessary to have single molecular probe capable for simultaneous analysis/detection of more than one protease. The present invention includes methods for developing and constructing a new probe that will be capable of simultaneous detection of activities of two proteases (like MMP-2 and MMP-9) at the same time and the same place by the same molecule (molecular construct). […] The probe is constructed in a way to force two sequential steps of energy transfer process. First step (FRET 1), is mediated through the cleavable linker specific to enzyme 1 (for example MMP-9) and occurs between the first energy donor and first acceptor (acceptor is a central body). Second step (FRET 2), is between the first acceptor that becomes donor to the second acceptor. The second donor and second acceptor are separated by linker specific to enzyme 2 (for example MMP-2). A highly efficient well-defined sequential FRET process offers distinctive signatures for recognizing two proteins activities. […]

MMP-3 = MMP-3 (Homo sapiens, UniProt P08254); assay: specificity of peptide: digestion by MMP-3; settings: peptide as substrate
Chain of MMP-3 (P08254 100-477): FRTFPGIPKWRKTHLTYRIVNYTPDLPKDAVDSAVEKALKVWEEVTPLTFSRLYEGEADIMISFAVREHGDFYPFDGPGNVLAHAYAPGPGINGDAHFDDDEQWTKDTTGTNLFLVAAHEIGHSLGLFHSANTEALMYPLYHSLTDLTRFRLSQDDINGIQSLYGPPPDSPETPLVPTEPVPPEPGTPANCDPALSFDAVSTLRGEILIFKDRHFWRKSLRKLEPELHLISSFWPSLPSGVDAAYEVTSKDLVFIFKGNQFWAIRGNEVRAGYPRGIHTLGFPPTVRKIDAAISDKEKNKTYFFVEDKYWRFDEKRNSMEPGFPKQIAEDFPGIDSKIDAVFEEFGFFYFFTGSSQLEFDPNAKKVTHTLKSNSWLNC
Text: as §1

MMP-7 = target: T2, MMP-7 (Homo sapiens, UniProt P09237); assay: specificity of peptide: digestion by MMP-7; settings: peptide as substrate
T2 sequence (P09237 95-267): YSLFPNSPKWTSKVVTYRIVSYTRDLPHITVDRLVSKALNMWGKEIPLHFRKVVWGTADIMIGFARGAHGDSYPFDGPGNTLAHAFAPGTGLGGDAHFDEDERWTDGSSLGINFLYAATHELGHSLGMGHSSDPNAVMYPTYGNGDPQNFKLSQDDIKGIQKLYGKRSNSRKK
Text: as §1

Chain of MMP-9 (P14780 94-707): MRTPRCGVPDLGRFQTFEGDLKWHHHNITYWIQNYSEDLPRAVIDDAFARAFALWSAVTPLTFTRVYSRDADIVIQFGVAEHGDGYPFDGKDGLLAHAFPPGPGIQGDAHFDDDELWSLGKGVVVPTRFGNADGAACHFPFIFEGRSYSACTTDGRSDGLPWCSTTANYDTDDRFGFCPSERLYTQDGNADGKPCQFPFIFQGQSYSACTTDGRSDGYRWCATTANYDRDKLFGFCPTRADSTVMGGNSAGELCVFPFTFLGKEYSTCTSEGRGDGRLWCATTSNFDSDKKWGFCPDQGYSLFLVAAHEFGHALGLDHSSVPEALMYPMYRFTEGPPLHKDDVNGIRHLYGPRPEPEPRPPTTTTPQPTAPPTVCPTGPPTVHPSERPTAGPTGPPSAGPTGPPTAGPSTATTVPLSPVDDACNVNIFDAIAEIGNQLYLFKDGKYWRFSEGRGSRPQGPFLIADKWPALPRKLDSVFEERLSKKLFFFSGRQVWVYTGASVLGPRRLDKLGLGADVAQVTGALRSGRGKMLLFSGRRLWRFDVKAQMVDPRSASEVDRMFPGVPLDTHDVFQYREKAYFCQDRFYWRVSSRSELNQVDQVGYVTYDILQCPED

cleavage of the peptide by MMP-9 (MMP-9; peptide as substrate): very effectively cleaves
FRET when intact (MMP-9; peptide labeled with donor and acceptor, intact, before addition of MMP-9): > 90%
ratiometric change (donor/acceptor signal) going from intact to completely cleaved peptide (MMP-9; peptide labeled with donor on one end and acceptor on the other, cleaved by MMP-9): ~60 fold
digestion of the peptide by MMP-2 enzyme (MMP-2): not digested
digestion of the peptide by MMP-3 enzyme (MMP-3): not digested
digestion of the peptide by MMP-7 enzyme (MMP-7): not digested
Substance: Lys-Gly-Pro-Arg-Ser-Leu-Ser-Gly-Lys (KGPRSLSGK; also: donor and acceptor labels) [labeled with donor on one end and acceptor on the other]
